Data as given in PMC8324488 (Cell Reports Medicine, 2021).

Target: EBV glycoprotein gp350 (Epstein-Barr virus (strain B95-8) …, UniProt P03200-1)
Assay: flow cytometry on cells

EBV glycoprotein gp350, sequence (P03200 whole entry): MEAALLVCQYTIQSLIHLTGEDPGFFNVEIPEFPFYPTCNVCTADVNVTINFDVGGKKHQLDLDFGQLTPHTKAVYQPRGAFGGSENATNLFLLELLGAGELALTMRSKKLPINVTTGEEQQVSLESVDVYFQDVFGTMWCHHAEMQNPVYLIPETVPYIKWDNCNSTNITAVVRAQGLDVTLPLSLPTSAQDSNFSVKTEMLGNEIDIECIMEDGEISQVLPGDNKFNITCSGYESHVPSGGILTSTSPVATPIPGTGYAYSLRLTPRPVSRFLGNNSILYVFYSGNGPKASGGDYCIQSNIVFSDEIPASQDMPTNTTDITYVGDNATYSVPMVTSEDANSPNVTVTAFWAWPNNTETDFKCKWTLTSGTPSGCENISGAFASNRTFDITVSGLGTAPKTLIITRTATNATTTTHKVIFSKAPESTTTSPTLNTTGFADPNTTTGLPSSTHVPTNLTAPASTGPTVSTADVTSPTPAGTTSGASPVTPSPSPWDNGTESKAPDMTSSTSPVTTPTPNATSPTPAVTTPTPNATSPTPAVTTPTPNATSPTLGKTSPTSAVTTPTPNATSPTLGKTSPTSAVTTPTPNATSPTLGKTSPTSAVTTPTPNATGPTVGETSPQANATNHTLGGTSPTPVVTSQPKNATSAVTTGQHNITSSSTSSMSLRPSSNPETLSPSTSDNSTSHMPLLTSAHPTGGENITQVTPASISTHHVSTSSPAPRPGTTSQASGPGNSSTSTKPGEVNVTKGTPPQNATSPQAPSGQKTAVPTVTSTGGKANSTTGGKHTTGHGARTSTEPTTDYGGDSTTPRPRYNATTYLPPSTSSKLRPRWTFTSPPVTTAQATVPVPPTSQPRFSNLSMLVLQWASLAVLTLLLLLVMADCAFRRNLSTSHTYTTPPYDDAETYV

B1: 72A1, original hybridoma antibody (antibody, V domains shown)
VH: EVQLQQSGPELVKPGTSMKISCKASGSSFTDYTMNWMKQSHGKNLEWIGLINPYNGGTRYNQKFKGKATLTLDKSSSTAYMEVLSLTSEDSAVYYCAGGLRRVNWFAYWGQGTLVSVSA
VL: QAVLTQESALTTSPGETVTLTCRSSTGAVTTSNYANWVQEKPDHLFTGLIGGTNNRVPGVPARFSGSLIGDKAALTITGAQTEDEAIYFCVLWHSNHWVFGGGTKLTVL
B1: binds.
